Changes are numbered by the printed parent chain. Numbers in names are those of the source.
T1: mFcγRIIb (Mus musculus, UniProt P08101)
T1 construct: extracellular region, C-terminal His- and GST-tag; also called mouse FcγRII
T1 sequence (receptor extracellular region, looked up): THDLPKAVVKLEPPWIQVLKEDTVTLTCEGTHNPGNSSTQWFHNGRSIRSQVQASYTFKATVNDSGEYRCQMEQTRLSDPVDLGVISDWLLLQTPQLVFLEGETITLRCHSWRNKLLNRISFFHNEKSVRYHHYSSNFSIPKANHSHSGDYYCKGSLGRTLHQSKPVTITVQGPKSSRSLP

T2: cynoFcγRIIb (Macaca fascicularis, UniProt A0A140HDP4)
T2 construct: extracellular region, C-terminal His- and GST-tag; also called cynomolgus monkey FcγRIIb
T2 sequence (receptor extracellular region): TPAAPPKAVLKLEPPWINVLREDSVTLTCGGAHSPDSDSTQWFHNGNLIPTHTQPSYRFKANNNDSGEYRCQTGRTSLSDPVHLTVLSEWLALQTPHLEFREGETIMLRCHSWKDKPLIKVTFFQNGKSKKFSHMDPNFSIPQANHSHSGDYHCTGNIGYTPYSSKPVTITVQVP

T3: mFcγRIV
T3 construct: also called mouse FcγRIV; not shown: C-terminal His and GST tags (named only on our card)
T3 chain: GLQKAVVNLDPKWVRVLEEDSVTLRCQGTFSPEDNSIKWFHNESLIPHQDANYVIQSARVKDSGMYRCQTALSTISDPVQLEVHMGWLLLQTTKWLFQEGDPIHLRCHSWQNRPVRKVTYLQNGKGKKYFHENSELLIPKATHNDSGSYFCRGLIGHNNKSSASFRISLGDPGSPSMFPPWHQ

T4: human FcγRIIa (131H), His- and GST-tagged (human, UniProt P12318 34-217)
T4 construct: also called H131 FcγRIIa; HIIa; not shown: 6xHis and GST tags of the pTT5 vector
T4 sequence (looked up): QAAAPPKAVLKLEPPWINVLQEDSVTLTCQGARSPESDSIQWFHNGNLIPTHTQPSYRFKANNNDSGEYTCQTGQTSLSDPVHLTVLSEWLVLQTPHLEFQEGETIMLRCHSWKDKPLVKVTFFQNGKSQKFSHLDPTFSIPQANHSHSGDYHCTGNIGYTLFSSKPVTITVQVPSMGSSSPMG

T5: human FcγRIIa (131R), His- and GST-tagged (human, UniProt P12318 34-217)
T5 construct: Expressed in HEK293T cells, purified by nickel chromatography; also called R131 FcγRIIa; not shown: 6xHis and GST tags of the pTT5 vector
T5 sequence (looked up): T4 sequence (looked up) with H134R

T6: human FcγRIIb receptor protein (R&D Systems) (human, UniProt P31994 46-217)
T6 construct: Bought protein injected over captured antibody in Biacore; also called CD32b
T6 sequence (looked up): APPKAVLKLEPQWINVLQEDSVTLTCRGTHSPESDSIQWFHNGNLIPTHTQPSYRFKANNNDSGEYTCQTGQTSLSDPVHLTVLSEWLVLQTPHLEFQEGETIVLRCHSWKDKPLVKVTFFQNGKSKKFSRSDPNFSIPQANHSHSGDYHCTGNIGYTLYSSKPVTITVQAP

B1: S239D (antibody, human IgG1, kappa)
heavy: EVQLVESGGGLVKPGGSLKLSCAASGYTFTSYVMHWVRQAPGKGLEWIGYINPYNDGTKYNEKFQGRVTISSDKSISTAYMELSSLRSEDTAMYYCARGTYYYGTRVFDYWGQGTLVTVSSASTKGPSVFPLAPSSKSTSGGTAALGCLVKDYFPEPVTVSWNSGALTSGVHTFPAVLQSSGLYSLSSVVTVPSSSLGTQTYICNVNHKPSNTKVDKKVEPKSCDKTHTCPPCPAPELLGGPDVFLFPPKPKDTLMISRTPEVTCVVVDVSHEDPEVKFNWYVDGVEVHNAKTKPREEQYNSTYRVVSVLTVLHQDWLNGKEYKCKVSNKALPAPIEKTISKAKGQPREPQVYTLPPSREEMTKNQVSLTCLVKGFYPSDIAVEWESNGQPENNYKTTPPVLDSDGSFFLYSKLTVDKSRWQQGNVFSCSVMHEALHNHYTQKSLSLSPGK
light: DIVMTQSPATLSLSPGERATLSCRSSKSLQNVNGNTYLYWFQQKPGQSPQLLIYRMSNLNSGVPDRFSGSGSGTEFTLTISSLEPEDFAVYYCMQHLEYPITFGAGTKLEIKRTVAAPSVFIFPPSDEQLKSGTASVVCLLNNFYPREAKVQWKVDNALQSGNSQESVTEQDSKDSTYSLSSTLTLSKADYEKHKVYACEVTHQGLSSPVTKSFNRGEC
notes: HuAM4G7 anti-CD19 IgG1 (m1) with this Fc substitution, EU index; copies: 2 + 2
B2: anti-CD19 antibody HuAM4G7 IgG1 S239D/S267E (antibody)
heavy: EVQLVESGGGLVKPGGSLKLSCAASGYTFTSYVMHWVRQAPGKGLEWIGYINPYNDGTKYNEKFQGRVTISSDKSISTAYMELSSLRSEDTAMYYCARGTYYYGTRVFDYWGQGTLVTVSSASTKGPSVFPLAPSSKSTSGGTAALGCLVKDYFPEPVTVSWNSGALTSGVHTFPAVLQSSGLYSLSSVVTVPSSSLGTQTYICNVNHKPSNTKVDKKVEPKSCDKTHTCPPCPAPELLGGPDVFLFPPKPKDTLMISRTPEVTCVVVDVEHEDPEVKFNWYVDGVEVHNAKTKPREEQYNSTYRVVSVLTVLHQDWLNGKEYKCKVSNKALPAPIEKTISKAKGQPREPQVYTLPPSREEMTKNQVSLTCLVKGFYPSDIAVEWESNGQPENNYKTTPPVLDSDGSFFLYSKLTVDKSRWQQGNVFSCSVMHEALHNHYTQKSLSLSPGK
light: B1 light
notes: Positions in EU numbering; copies: 2 + 2
B3: G236D (antibody, human IgG1, kappa)
heavy: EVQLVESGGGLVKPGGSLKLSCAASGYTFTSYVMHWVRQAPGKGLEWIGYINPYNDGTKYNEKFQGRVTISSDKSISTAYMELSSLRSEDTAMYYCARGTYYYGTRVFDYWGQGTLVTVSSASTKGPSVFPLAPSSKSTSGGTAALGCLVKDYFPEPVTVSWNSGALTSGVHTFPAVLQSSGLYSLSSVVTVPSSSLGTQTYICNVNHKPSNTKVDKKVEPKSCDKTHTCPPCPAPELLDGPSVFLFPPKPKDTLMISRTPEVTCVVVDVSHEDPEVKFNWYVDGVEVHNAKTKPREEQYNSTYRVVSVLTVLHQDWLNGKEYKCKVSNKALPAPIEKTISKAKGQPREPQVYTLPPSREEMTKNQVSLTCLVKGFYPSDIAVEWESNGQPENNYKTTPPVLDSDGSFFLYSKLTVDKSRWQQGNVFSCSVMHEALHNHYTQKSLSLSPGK
light: B1 light
notes: as for B1
B4: anti-CD19 antibody HuAM4G7 IgG1 ^236R/L328R (antibody)
heavy: EVQLVESGGGLVKPGGSLKLSCAASGYTFTSYVMHWVRQAPGKGLEWIGYINPYNDGTKYNEKFQGRVTISSDKSISTAYMELSSLRSEDTAMYYCARGTYYYGTRVFDYWGQGTLVTVSSASTKGPSVFPLAPSSKSTSGGTAALGCLVKDYFPEPVTVSWNSGALTSGVHTFPAVLQSSGLYSLSSVVTVPSSSLGTQTYICNVNHKPSNTKVDKKVEPKSCDKTHTCPPCPAPELLGRGPSVFLFPPKPKDTLMISRTPEVTCVVVDVSHEDPEVKFNWYVDGVEVHNAKTKPREEQYNSTYRVVSVLTVLHQDWLNGKEYKCKVSNKARPAPIEKTISKAKGQPREPQVYTLPPSREEMTKNQVSLTCLVKGFYPSDIAVEWESNGQPENNYKTTPPVLDSDGSFFLYSKLTVDKSRWQQGNVFSCSVMHEALHNHYTQKSLSLSPGK
light: B1 light
notes: also called Fc-KO; FcγR knockout
B5: anti-CD19 antibody HuAM4G7 IgG1 G236D/S267E (antibody)
heavy: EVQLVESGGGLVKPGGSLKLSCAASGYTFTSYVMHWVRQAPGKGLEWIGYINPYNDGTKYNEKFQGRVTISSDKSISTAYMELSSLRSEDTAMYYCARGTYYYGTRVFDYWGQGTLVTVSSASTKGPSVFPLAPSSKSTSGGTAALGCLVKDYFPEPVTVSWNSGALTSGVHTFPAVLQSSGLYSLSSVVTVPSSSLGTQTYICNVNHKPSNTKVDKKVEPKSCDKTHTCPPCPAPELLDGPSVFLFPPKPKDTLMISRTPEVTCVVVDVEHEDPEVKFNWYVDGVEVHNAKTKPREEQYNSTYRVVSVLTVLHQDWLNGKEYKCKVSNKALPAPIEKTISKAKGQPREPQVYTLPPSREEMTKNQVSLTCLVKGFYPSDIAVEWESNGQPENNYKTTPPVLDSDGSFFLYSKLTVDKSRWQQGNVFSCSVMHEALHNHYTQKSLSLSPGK
light: B1 light
notes: as for B2
B6: anti-CD19 antibody HuAM4G7 IgG1 G236R/L328R (antibody)
heavy: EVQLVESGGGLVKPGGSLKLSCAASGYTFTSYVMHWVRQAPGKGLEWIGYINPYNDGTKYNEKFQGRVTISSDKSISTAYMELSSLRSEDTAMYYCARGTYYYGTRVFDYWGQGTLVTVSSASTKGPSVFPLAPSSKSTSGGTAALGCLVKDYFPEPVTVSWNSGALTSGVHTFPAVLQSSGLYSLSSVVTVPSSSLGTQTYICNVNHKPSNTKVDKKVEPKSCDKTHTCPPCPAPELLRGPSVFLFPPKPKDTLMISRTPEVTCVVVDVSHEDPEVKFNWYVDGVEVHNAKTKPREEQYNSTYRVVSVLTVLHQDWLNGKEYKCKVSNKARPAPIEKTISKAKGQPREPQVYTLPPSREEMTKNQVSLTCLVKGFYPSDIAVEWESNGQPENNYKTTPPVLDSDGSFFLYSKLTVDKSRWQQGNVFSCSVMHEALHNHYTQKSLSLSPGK
light: B1 light
notes: Control knock out variant; Positions in EU numbering; also called Fc-KO; FcγR knockout
B7: G237A (antibody, human IgG1, kappa)
heavy: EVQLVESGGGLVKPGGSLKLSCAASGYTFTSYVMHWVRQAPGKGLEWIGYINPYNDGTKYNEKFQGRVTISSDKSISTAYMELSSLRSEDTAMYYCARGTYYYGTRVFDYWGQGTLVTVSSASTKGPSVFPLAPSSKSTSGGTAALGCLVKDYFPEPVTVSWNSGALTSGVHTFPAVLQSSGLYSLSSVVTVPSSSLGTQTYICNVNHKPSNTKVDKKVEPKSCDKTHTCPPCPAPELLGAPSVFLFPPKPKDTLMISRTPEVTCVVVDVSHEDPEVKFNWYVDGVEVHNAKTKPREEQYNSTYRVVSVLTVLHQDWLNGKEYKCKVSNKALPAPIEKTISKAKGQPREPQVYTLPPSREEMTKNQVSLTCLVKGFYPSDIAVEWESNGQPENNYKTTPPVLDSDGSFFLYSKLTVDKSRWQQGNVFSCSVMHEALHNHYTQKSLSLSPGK
light: B1 light
notes: as for B1
B8: G237S (antibody, human IgG1, kappa)
heavy: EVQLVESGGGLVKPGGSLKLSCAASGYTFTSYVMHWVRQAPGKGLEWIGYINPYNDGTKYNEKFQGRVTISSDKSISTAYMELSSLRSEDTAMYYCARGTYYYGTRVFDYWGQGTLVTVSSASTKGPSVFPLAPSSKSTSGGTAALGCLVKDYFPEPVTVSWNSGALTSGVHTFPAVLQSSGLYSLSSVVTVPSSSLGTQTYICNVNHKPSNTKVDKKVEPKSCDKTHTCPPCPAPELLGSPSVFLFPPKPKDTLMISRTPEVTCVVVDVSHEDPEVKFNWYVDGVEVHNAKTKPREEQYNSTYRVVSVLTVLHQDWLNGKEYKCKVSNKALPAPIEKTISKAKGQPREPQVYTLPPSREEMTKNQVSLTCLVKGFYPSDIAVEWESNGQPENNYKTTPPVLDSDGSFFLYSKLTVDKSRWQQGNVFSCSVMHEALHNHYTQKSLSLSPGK
light: B1 light
notes: as for B1
B9: P329E (antibody, human IgG1, kappa)
heavy: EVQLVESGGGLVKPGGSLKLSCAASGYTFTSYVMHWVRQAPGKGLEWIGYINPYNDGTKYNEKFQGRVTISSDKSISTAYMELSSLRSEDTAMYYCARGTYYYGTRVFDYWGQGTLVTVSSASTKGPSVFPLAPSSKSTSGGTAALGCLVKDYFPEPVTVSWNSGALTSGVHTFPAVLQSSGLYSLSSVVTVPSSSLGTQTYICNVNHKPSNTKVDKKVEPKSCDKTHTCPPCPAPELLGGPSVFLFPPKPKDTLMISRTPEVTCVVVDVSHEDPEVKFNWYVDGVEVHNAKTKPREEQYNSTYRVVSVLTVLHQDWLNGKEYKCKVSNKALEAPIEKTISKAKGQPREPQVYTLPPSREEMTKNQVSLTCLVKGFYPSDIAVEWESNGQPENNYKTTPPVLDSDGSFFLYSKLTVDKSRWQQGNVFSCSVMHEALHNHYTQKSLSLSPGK
light: B1 light
notes: as for B1
B10: L234K (antibody, human IgG1, kappa)
heavy: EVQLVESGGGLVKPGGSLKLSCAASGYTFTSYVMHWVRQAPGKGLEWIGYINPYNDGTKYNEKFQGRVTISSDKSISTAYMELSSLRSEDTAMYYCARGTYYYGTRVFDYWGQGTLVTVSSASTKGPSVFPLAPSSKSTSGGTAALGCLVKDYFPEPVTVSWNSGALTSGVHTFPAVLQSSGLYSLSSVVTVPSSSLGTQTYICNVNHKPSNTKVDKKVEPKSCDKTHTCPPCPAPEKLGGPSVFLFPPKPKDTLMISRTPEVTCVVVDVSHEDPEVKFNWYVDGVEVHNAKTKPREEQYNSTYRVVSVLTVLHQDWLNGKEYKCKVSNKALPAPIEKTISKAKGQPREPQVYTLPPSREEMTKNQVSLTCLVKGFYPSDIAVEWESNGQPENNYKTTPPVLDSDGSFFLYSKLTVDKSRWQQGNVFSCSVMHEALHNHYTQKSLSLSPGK
light: B1 light
notes: as for B1
B11: V266D (antibody, human IgG1, kappa)
heavy: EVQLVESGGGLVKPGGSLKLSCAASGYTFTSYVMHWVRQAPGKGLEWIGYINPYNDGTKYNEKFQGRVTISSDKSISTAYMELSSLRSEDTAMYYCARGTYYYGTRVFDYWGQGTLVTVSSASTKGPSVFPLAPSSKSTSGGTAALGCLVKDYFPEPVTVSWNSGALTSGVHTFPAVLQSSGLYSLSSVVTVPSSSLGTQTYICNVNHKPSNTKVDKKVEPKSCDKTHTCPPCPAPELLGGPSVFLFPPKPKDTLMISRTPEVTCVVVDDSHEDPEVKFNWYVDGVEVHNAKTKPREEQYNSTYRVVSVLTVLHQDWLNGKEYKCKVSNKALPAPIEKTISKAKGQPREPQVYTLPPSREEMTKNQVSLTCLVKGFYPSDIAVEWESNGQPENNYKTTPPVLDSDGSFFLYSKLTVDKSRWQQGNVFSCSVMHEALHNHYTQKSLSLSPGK
light: B1 light
notes: as for B1

Each binder was assayed against T1, mFcγRIIb (assay: SPR).
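Wherever Fold vs WT IgG1 (off-rate) is given: fold improvement over WT IgG1 so higher means slower dissociation than WT.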

Row | Fold vs WT IgG1 (Kd) | Fold vs WT IgG1 (off-rate) | Binder
1 | 2.01 fold | 2.91 fold | B1
2 | 1.75 fold | 7.87 fold | B2

Each binder was assayed against T7, cynoFcγRIIIa (Macaca fascicularis, UniProt Q8SPW2) (assay: SPR).
T7 construct: extracellular region, C-terminal His- and GST-tag; also called cynomolgus monkey FcγRIIIa
T7 sequence (Q8SPW2 17-208): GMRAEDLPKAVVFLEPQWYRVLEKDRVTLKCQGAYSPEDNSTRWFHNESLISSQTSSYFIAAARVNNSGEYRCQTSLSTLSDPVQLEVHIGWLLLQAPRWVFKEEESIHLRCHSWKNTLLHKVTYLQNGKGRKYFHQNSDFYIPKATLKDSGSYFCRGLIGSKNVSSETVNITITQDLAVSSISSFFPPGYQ

Row | Fold vs WT IgG1 (Kd) | Fold vs WT IgG1 (off-rate) | Binder
3 | 7.58 fold | 2.33 fold | B1
4 | 3.88 fold | 1.68 fold | B2

Each binder was assayed against T2, cynoFcγRIIb (assay: SPR).

Row | Fold vs WT IgG1 (Kd) | Fold vs WT IgG1 (off-rate) | Binder
5 | 1.64 fold | 1.99 fold | B1
6 | 1.59 fold | 2.53 fold | B2

Biological target: T3, mFcγRIV
Experiment: SPR

Row | Fold vs WT IgG1 (Kd) | Fold vs WT IgG1 (off-rate) | Binder
7 | 2.52 fold | 1.91 fold | B1
8 | 0.726 fold | 1.54 fold | B2

Each binder was assayed against T4, human FcγRIIa (131H), His- and … (assay: SPR).

Row | Fold vs WT IgG1 | Kd | binding result | Binder
9 | 0.167 fold | 3870 nM |  | B3
10 |  |  | no binding | B4
11 | 1.1 fold | 590 nM |  | B1
12 |  | 2730 nM |  | B5
13 |  |  | no binding | B6
14 | 1.27 fold | 510 nM |  | B2
15 |  |  | no binding | B7

The binders below were run against T5, human FcγRIIa (131R), His- and … (assay: SPR).

Row | Fold vs WT IgG1 | Kd | binding result | Binder
16 | 0.758 fold | 1130 nM |  | B3
17 |  |  | no binding | B4
18 | 3.73 fold | 230 nM |  | B1
19 | 0.081 fold | 10600 nM |  | B8
20 | 0.0859 fold | 10000 nM |  | B9
21 | 0.00859 fold | 100000 nM |  | B10
22 | 0.704 fold | 1220 nM |  | B11
23 |  |  | no binding | B6
24 | 120 fold | 7.16 nM |  | B2
25 | 0.704 fold | 1220 nM |  | B7

The binders below were run against T8, human FcγRIIIa (158F), His- and GST-tagged (human, UniProt P08637 17-208) (assay: SPR).
T8 construct: also called F158 FcγRIIIa; not shown: 6xHis and GST tags of the pTT5 vector
T8 sequence (P08637 17-208): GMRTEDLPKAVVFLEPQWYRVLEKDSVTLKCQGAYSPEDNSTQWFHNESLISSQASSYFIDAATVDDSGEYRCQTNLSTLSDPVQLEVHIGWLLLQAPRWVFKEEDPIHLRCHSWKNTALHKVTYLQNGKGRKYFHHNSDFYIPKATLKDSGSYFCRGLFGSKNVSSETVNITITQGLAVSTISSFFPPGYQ

Row | binding result | Fold vs WT IgG1 | Kd | Binder
26 | no binding |  |  | B3
27 | no binding |  |  | B4
28 |  | 6.32 fold | 214 nM | B1
29 | no binding |  |  | B6
30 |  |  | 516 nM | B2

The binders below were run against T9, human FcγRIIIa (158V), His- and GST-tagged (human, UniProt P08637 17-208) (assay: SPR).
T9 construct: also called V158 FcγRIIIa; VIIIa; not shown: 6xHis and GST tags of the pTT5 vector
T9 sequence (P08637 17-208 F176V): as the sequence (P08637 17-208) above, with F160V counted along it

Row | binding result | Fold vs WT IgG1 | Kd | Binder
31 | no binding |  |  | B3
32 | no binding |  |  | B4
33 |  | 8.14 fold | 23.5 nM | B1
34 |  |  | 579 nM | B5
35 | no binding |  |  | B6
36 |  | 3.74 fold | 51.2 nM | B2
37 | no binding |  |  | B7

These binders were tested against T6, human FcγRIIb receptor protein (R&D …) (assay: SPR).

Row | Fold vs WT IgG1 | Kd | binding result | Binder
38 | 1.54 fold | 953 nM |  | B3
39 |  |  | no binding | B4
40 | 3.6 fold | 408 nM |  | B1
41 | 0.147 fold | 10000 nM |  | B8
42 | 0.147 fold | 10000 nM |  | B9
43 |  | 26.6 nM |  | B5
44 | 0.0147 fold | 100000 nM |  | B10
45 | 0.147 fold | 10000 nM |  | B11
46 |  |  | no binding | B6
47 | 111 fold | 13.3 nM |  | B2
48 | 0.191 fold | 7680 nM |  | B7

The binders below were run against T10, human FcγRI receptor protein (R&D Systems) (human, UniProt P12314 16-288) (assay: SPR).
T10 construct: also called soluble FcγRI; solFcγRI
T10 sequence (P12314 16-288 limits assumed): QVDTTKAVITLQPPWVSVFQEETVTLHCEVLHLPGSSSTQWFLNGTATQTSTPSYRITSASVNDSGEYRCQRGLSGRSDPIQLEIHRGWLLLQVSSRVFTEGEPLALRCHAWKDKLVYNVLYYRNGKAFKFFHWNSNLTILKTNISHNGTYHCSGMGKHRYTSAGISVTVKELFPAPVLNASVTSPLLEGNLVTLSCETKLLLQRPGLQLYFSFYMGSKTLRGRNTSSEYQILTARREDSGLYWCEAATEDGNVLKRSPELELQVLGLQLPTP

Row | Fold vs WT IgG1 | Kd | binding result | Binder
49 | 0.0211 fold | 15.6 nM |  | B3
50 |  |  | no binding | B4
51 | 3.53 fold | 0.0934 nM |  | B1
52 |  | 3.71 nM |  | B5
53 |  |  | no binding | B6
54 | 23.2 fold | 0.0142 nM |  | B2
55 | 0.0108 fold | 30.5 nM |  | B7

The binders below were run against T1, mFcγRIIb (assay: SPR, off-rate).

Row | binding result | Binder
56 | no binding | B3
57 | no binding | B8
58 | no binding | B9
59 | no binding | B5
60 | no binding | B10
61 | no binding | B11
62 | no binding | B7

Each binder was assayed against T7, cynoFcγRIIIa (assay: SPR, off-rate).

Row | binding result | Binder
63 | no binding | B3
64 | no binding | B8
65 | no binding | B9
66 | no binding | B5
67 | no binding | B10
68 | no binding | B11
69 | no binding | B7

What follows are binders tested against T2, cynoFcγRIIb (assay: SPR, off-rate).

Row | binding result | Binder
70 | no binding | B3
71 | no binding | B8
72 | no binding | B9
73 | no binding | B5
74 | no binding | B10
75 | no binding | B11
76 | no binding | B7

Biological target: T3, mFcγRIV
Experiment: SPR, off-rate

Row | binding result | Binder
77 | no binding | B3
78 | no binding | B8
79 | no binding | B9
80 | no binding | B5
81 | no binding | B10
82 | no binding | B11
83 | no binding | B7

Reference: patent US20130315910A1 (Xencor, published 2013)
